Entries after “also recorded” stand apart in the source; their conditions may differ.
What was measured:
Il6 = Il6 transcripts qRT-PCR in hPASMC; type: cell-based, human; settings: SMCs, EMAP II time course
Method: (§1) RAW 264.7 (ATCC) mouse macrophages and Human Embryonic Kidney (HEK) 293T cells were cultured in DMEM media with 10% fetal bovine serum […] and glutamine HEPES buffer and beta-mercaptoethanol were added to the growth medium used for RAW 264.7 macrophages. […]
(§2) Total RNA was extracted with TriZol using standard RNA extraction protocol and reverse transcribed with SuperScript III Reverse Transcriptase (Thermo Fischer Scientific). SphK1, Tnf, Il6, EGR1, Gapdh, Hprt1 transcripts were quantified using PrimePCR SYBR Green assays from BioRad. […]
(§3) Total RNA was extracted with TriZol using standard RNA extraction protocol and reverse transcribed with SuperScript III Reverse Transcriptase (Thermo Fisher Scientific). SPHK1, Tnf, Il6, EGR1, Gapdh, Hprt1 transcripts were quantified using PrimePCR SYBR Green assays from BioRad.

SphK1 = SphK1 transcripts qRT-PCR in hPASMC; type: cell-based, human; settings: SMCs
Method: as §1, §2, §3

Tnf = Tnf transcripts qRT-PCR in RAW 264.7 macrophages; type: cell-based, mouse; settings: EMAP II time course
Method: as §1, §2, §3

S1P [1] = experiment: Lung tissue S1P by HPLC/MS/MS in neonatal mice; type: in vivo, mouse; settings: neonatal C57BL/6 mice; recombinant EMAP II subQ days of life 3-15; postnatal day 15 lungs
Method: Animal experimental procedure was performed in accordance with the guidelines issued by the University of Notre Dame/Indiana University Institutional Animal and Use Committee. Lung tissues were harvested from postnatal day 15 C57BL/6 mice (Jackson laboratories) that were injected with either EMAP II or PBS at Day 3. Total protein was extracted and quantified. 1 mg of total protein was subjected to S1P quantification by HPLC/MS/MS.
Collected cells were rinsed with PBS, pelleted. Cell pellets and 1 mg of protein tissue extracts were frozen at −80° C. Sphingolipids extraction and analysis was carried out at the Medical University of South Carolina (MUSC) core facility using eight-point calibration curves generated for each target analyte by High Performance Liquid Chromatography-Tandem Mass Spectrometry (HPLC/MS/MS) system operating in positive multiple reaction-monitoring (MRM) mode engaging a gradient elution. Sphingolipids were normalized to inorganic phosphate levels in PASMC which was determined from the Bligh & Dyer lipid extraction method. Biological samples were from different passages collected on different days.

S1P [2] = experiment: S1P, sphingosine and ceramides by HPLC/MS/MS in RAW 264.7 macrophages; type: cell-based, mouse; settings: EMAP II 0-24 hours
Method: RAW 264.7 (ATCC) mouse macrophages and Human Embryonic Kidney (HEK) 293T cells were cultured in DMEM media with 10% fetal bovine serum […] and glutamine HEPES buffer and beta-mercaptoethanol were added to the growth medium used for RAW 264.7 macrophages. Primary human pulmonary artery smooth muscle cells (hPASMC) purchased from Lonza (Walkersville, Md.) were cultured in complete growth medium containing smooth muscle growth media-2 (SmGM-2) with 10% FBS and growth factors provided as a kit by the supplier (Lonza, (Walkersville, Md.). THP-1 human monocyte cells were cultured in RPMI 1640 with 10% FBS and glutamine Cells were cultured in a humidified atmosphere with 5% CO2 at 370 C. For all studies passages 5-14 were used for RAW 264.7 and passages 5-10 were used for hPASMCs. For treatment studies, subconfluent cells plated in multi-well plates were serum starved and if required, pretreated for with inhibitors before stimulating with 2 μg/mL recombinant EMAP II.
Collected cells were rinsed with PBS, pelleted and frozen at minus 80° Celsius. […] Sphingolipids are normalized to inorganic phosphate levels determined from the Bligh & Dyer lipid extraction method. […]
Collected cells were rinsed with PBS, pelleted. […] Sphingolipids were normalized to inorganic phosphate levels in PASMC which was determined from the Bligh & Dyer lipid extraction method. […]

pSphK1 (Ser225) = pSphK1 (Ser225) immunoblotting and immunofluorescence in hPASMC; type: cell-based, human; settings: SMCs
Method: as §1
(§4) After appropriate treatments, protein lysates were prepared by using RIPA buffer supplemented with phosphatase and protease inhibitors (Thermo Fischer Scientific). […] Western blots were performed according to standard methods and quantified using densitometry using Image Studio Lite software from LI-COR Biosciences. […]
as §4, with “Fisher” for “Fischer”

B1: EMAP II: 6x-His tagged recombinant EMAP II, cleaved C-terminal peptide of AIMP1 (SEQ ID NO: 2), pro-inflammatory cytokine (protein)
chain: IAGSADSKPIDVSRLDLRIGCIITARKHPDADSLYVEEVDVGEIAPRTVVSGLVNHVPLEQMQNRMVILLCNLKPAKMRGVLSQAMVMCASSPEKIEILAPPNGSVPGDRITFDAFPGEPDKELNPKKKIWEQIQPDLHTNDECVATYKGVPFEVKGKGVCRAQTMSNSGIK
Il6 transcription (Il6): increased transcription | time of peak SphK1 transcription after EMAP II stimulation (SphK1): 3 h | Tnf transcription level (Tnf): increased | whole lung S1P levels compared to control (S1P [1]): significantly increased; also recorded: significant increase | cellular sphingosine and ceramide levels (S1P [2]): bi-modal depreciation; also recorded: decreasing levels over time | cellular S1P levels (S1P [2]; normalized against inorganic phosphates): continuous elevation | pSphK1 localization to the plasma membrane (pSphK1 (Ser225); immunostaining pSphK1 and actin, 15 minutes, 1 hour, 6 hours EMAP II): stimulated translocation; also recorded: trafficked to the plasma membrane; also recorded: increased pSPHK1 signal | SphK1 phosphorylation (pSphK1/Tubulin) (pSphK1 (Ser225); peaks at 1 and 6 hours of EMAP II): bi-modal SphK1 phosphorylation; also recorded: bimodal SPHK1 phosphorylation

— patent publication US20200397816A1, “METHODS TO TREAT INFLAMMATORY AND SMOOTH MUSCLE CELL PROLIFERATION DISORDERS” (THE TRUSTEES OF INDIANA UNIVERSITY, priority 2019, published 2020)
